Experimental data from patent US20190218277A1 (Chugai, published 2019).
Numbering of substitutions follows the chain as printed.

T1: human FcγRIIIb (NA1) (human, UniProt O75015 17-200)
T1 construct: also called human FcγR3b allelic variant NA1
T1 chain: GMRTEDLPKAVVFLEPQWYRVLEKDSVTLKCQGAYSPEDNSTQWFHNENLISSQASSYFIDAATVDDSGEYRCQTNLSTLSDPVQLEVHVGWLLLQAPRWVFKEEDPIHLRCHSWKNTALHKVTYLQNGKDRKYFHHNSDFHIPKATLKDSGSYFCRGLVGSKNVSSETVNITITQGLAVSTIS

T2: human FcγRIIa (167R) (human, UniProt P12318 36-217)
T2 construct: also called human FcγR2a allelic variant 167R
T2 chain: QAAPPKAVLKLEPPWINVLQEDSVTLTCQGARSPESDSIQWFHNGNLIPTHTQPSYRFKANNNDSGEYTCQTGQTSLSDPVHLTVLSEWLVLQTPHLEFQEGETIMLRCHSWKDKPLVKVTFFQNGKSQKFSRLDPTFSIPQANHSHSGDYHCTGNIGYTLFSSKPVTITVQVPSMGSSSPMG

T3: mouse FcγRI (mouse, UniProt P26151 25-297)
T3 construct: also called mFcγRI; mouse FcγR1
T3 sequence: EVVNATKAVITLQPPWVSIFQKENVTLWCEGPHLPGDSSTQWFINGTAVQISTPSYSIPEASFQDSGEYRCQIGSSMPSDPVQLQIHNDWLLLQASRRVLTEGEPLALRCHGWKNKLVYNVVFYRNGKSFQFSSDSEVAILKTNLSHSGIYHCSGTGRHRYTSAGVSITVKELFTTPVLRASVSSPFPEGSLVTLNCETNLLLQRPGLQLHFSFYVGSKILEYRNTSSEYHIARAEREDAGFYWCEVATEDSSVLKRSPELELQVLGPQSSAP

B1: Anti-CD154 antibody (SLAPH0336a/SLAPL0336a) with Fc variant LALA+ACT3 (SG1044) (antibody)
heavy: EVQLVESGGGSVKPGGSLKLSCAASGFTFSDHYMYWVRQTPEKRLEWVAIISGGGSYTSYPDSMKGRFTISRDNAKNILHLQMSSLKSEDTAMYYCTRESNGKPGFAYWGQGTLVTVSAASTKGPSVFPLAPSSKSTSGGTAALGCLVKDYFPEPVTVSWNSGALTSGVHTFPAVLQSSGLYSLSSVVTVPSSSLGTQTYICNVNHKPSNTKVDKRVEPKSCDKTHTCPPCPAPEAAGGPSVFLFPPKPKDTLMISRTPEVTCVVVDVSHEDPEVKFNWYVDGVEVHNAKTKPREEQYNSTYRVVSVLTVLHQDWLNGKEYKCKVSNKALPAPIEKTISKAKGQPREPQVYTLPPSREEMTKNQVSLTCLVKGFYPSDIAVEWESNGQPENNYKTTPPVLDSDGSFFLYSKLTVDKSRWQQGNVFSCSVLHEALHAHTTRKELSLSP
light: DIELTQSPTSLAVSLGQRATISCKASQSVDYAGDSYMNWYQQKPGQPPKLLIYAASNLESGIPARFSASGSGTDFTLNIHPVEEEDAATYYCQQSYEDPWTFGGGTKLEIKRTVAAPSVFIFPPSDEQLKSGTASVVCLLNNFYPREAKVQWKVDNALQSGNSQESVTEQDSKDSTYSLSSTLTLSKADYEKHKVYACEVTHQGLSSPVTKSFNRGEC
B2: Anti-CD154 antibody (SLAPH0336a/SLAPL0336a) with Fc variant LALA+ACT3+KAES (SG1105) (antibody)
heavy: B1 heavy with K328A, E335S
light: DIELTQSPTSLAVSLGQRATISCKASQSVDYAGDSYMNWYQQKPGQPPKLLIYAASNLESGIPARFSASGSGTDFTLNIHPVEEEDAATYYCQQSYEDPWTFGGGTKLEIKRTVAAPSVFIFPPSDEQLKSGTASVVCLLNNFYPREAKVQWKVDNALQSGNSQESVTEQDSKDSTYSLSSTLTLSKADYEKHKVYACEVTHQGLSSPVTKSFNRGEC
notes: also called LALA+KAES+ACT3
B3: Anti-CD154 antibody (SLAPH0336a/SLAPL0336a) with Fc variant LALA+ACT5 (SG1045) (antibody)
heavy: B1 heavy with T438Y
light: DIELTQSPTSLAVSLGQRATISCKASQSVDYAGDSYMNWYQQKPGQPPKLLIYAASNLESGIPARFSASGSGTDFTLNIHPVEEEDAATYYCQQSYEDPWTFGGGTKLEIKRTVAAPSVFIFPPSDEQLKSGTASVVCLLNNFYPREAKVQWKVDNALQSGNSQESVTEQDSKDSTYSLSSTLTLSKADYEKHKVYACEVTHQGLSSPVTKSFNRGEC
B4: Anti-CD154 antibody (SLAPH0336a/SLAPL0336a) with Fc variant LALA+ACT5+KAES (SG1106) (antibody)
heavy: B1 heavy with K328A, E335S, T438Y
light: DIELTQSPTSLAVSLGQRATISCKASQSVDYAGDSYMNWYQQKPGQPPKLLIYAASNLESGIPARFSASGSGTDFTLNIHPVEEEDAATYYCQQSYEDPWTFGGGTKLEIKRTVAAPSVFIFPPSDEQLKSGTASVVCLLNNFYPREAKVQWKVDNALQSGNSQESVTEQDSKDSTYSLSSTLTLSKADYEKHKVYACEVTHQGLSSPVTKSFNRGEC
notes: also called LALA+KAES+ACT5

Molecular target: T1, human FcγRIIIb (NA1)
Test: SPR (Biacore T200, pH 7.4, 25 °C): His-tagged FcγR captured by anti-His antibody; antibody injected at 100 nM alone (Ab alone) or as 1:1 complex with trimeric CD154 (CD154 IC); binding level / capture level [G]

Binder	binding result
B1	no binding (tested: 100 nM)
B2	no binding (tested: 100 nM)
B3	no binding (tested: 100 nM)
B4	no binding (tested: 100 nM)

Molecular target: T2, human FcγRIIa (167R)
Test: SPR (Biacore T200, pH 7.4, 25 °C): His-tagged FcγR captured by anti-His antibody; antibody injected at 100 nM alone (Ab alone) or as 1:1 complex with trimeric CD154 (CD154 IC); binding level / capture level [C]

Binder	binding result
B1	no binding (tested: 100 nM)
B2	no binding (tested: 100 nM)
B3	no binding (tested: 100 nM)
B4	no binding (tested: 100 nM)

These binders were tested against T3, mouse FcγRI (assay: SPR (Biacore T200, pH 7.4, 25 °C): His-tagged FcγR captured by anti-His antibody; antibody injected at 100 nM alone (Ab alone) or as 1:1 complex with trimeric CD154 (CD154 IC); binding level / capture level [A]).

Binder	binding result
B1	no binding (tested: 100 nM)
B2	no binding (tested: 100 nM)
B3	no binding (tested: 100 nM)
B4	no binding (tested: 100 nM)

The binders below were run against mouse C1q (from 10% mouse plasma) (mouse, UniProt P98086 23-245; P14106 26-253; Q02105 30-246) (assay: ELISA: antibody coated on the plate at the concentration shown, 10% mouse plasma added, detected with biotinylated anti-mouse C1q and streptavidin-HRP, OD 405 nm).
Sequence of mouse C1q (from 10% mouse plasma) (P98086 23-245 limits assumed, chain 1 of 3): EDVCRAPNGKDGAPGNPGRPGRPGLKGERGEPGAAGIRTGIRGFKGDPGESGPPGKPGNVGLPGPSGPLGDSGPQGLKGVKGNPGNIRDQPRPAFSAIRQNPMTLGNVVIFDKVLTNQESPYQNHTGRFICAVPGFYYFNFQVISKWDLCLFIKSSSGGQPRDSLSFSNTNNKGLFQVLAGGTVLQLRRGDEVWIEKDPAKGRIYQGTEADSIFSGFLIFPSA
Sequence of mouse C1q (from 10% mouse plasma) (P14106 26-253 limits assumed, chain 2 of 3): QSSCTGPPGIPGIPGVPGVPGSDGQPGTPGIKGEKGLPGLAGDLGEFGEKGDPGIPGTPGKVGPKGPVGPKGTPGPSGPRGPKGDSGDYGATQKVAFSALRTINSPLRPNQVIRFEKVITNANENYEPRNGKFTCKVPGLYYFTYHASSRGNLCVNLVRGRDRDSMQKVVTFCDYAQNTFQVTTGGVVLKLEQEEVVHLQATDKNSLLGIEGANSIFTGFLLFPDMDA
Sequence of mouse C1q (from 10% mouse plasma) (Q02105 30-246 limits assumed, chain 3 of 3): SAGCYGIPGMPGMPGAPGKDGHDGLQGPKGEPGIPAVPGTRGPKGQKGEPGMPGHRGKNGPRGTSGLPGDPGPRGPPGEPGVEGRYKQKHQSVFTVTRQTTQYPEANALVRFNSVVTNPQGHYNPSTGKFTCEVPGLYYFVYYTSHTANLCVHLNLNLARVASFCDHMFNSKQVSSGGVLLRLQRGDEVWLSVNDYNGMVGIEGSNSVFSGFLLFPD

Binder	binding result
B1	binds
B2	binds
B3	binds
B4	binds
